This is an account of results in article PMC6443781.

The target in test [1] is AP2M1 (residues 160–435) (human) (UniProt Q96CW1). Kind of test: ITC; MicroCal ITC200, 20 °C, 25 mM HEPES pH 7.5, 50 mM NaCl; AP2M1 (160–435) 50 µM in the cell, IRS1 peptide (about 0.5 mM) injected.
The target in test [2] is GFP-AP2B1 full length (FL) (UniProt P63010). The test can be described thus: co-immunoprecipitation (anti-Myc IP, anti-AP2B1 blot, band quantification). The following applies: 293FT cells transfected with GFP-AP2B1 and Myc-BUBR1; n = 3 independent experiments; parent: 1.
Test [3] has as its target AP2M1 160-435 (UniProt Q96CW1). Kind of test: peptide-bead pull-down, Coomassie. To be noted: reference: unphosphorylated peptide YMPMS.
Test [4] concerns the target AP2M1 160-435 (UniProt Q96CW1). Kind of test: isothermal titration calorimetry. To be noted: reference: unphosphorylated peptide YMPMS; sites S616.

Chain of UniProt P63010 (P63010 whole entry): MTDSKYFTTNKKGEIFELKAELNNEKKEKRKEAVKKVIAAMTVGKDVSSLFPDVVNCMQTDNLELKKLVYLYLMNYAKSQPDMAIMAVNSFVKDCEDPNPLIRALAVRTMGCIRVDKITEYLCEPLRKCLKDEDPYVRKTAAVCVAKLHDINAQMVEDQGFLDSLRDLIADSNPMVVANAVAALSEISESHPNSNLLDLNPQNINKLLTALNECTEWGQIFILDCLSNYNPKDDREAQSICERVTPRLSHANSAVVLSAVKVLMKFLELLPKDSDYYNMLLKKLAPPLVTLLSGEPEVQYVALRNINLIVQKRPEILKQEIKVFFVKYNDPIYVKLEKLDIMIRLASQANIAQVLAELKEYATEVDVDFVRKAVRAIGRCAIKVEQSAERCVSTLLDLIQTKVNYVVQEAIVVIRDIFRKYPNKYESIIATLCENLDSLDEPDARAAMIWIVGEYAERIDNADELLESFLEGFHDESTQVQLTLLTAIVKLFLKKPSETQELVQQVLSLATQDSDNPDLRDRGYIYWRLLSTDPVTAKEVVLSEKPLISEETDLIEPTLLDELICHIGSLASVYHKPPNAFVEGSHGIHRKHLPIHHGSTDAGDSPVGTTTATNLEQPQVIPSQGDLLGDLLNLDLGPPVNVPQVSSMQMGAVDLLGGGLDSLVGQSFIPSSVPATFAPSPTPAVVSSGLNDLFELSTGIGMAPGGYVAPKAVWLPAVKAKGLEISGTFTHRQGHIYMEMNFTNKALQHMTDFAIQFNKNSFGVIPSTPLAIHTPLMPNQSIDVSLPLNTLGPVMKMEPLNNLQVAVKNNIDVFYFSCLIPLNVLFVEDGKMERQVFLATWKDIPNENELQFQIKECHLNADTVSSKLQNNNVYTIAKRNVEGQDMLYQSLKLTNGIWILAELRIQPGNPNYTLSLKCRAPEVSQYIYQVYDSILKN
Chain of UniProt Q96CW1 (Q96CW1 160-435): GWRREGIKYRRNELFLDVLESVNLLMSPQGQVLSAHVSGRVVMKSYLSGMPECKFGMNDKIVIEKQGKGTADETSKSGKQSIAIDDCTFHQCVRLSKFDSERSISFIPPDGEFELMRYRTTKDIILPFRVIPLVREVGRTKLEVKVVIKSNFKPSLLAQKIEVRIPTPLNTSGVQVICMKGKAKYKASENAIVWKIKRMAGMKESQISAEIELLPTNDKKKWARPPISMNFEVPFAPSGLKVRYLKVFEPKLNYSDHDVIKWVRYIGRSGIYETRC

Consider “phospho-serine IRS1 peptide (pS-IRS1; YMPMpS)”, for which the dissociation constant (Kd) in test [1] is 0.28 µM.

With “Myc-BUBR1 full length (WT) (from UniProt O60566) ΔPhe; ΔD2”, the ratio to parent in test [2] turned out to be 0.67.

In the case of “IRS1 607-620 (from UniProt P35568) pYMPMS peptide”, the “binding against the reference” value in test [3] (sites Y612) is reported as “lost”.

For “Myc-BUBR1 full length (WT) (from UniProt O60566) ΔPhe”, the ratio to parent in test [2] stood at 0.75.

“Myc-BUBR1 full length (WT) (from UniProt O60566) ΔKEN2”: in test [2], the ratio to parent was determined as 0.94.

“Myc-BUBR1 full length (WT) (from UniProt O60566) ΔD2”: the ratio to parent in test [2] turned out to be 0.72.

Take unphosphorylated IRS1 peptide (YMPMS): in test [1], the Kd is 2.03 µM.

Turning to “Myc-BUBR1 full length (WT) (from UniProt O60566) ΔKEN1”, the ratio to parent in test [2] stood at 1.31.

Consider “IRS1 607-620 (from UniProt P35568) YMPMpS peptide”, for which the “binding against the reference” value in test [3] (sites S616) is listed as “stronger”. Moreover, in test [4], the KD result was “stronger; reference 2.03 µM”.

As a reminder, the Kd is the concentration at which binding is half-saturated. Low values mean tighter binding, high ones weaker binding.
